The numbers were not newly measured in article PMC2778592, which cites them from elsewhere.

The target of this data set is EGFR (Homo sapiens) (UniProt P00533).

In the case of “tenascin-C Ten14 EGF-L repeat (from UniProt P24821)”, the equilibrium dissociation constant (Kd) was 74 µM.

A word on the Kd: it is the equilibrium constant for the complex coming apart.
